Patent US20210395394A1

B1: Mutation 1-19 (antibody, mouse IgG2b, kappa, V domains shown)
VH: QVQLQQPGAELVRPGASVKLSCKASGYSFTNYWMNWVKQRPGQGLEWIGMIHPSDSETRLNQKFKDKATLTVDKSSSTAYMQLSSLTAEDSAVYYCARSGDFYTYYFDYWGQGTTLTVSS
VL: DIQLTQSPASLSASVGETVTITCRGSGNIHNYLAWYQQKQGKSPQLLVYNAKTLADGVPSRFSGSGSGTQYSLKINSLQPEDFGSYYCQYFWSTYTFGGGTKLEIKR
B2: Mutation 1-34 (antibody, mouse IgG2b, kappa, V domains shown)
VH: QVQLQQPGAELVRPGASVKLSCKASGYSFTNYWMNWVKQRPGQGLEWIGMIHPSESETRLNQKFKDKATLTVDKSSSTAYMQLSSLTAEDSAVYYCARSGEFYTYYFDYWGQGTTLTVSS
VL: DIQLTQSPASLSASVGETVTITCRGTGNLHNYLAWYQQKQGKSPQLLVYNARTVADGVPSRFSGSGSGTQYSLKINSLQPEDFGSYYCQSFWSTYTFGGGTKLEIKR
B3: Mutation 1-25 (antibody, mouse IgG2b, kappa, V domains shown)
VH: QVQLQQPGAELVRPGASVKLSCKASGTSFTNYWMNWVKQRPGQGLEWIGMIHPSDSETRLNQKFKDKATLTVDKSSSTAYMQLSSLTAEDSAVYYCAKSGDFYTYYFDYWGQGTTLTVSS
VL: DIQLTQSPASLSASVGETVTITCRGTGNLHNYLAWYQQKQGKSPQLLVYNAKTIADGVPSRFSGSGSGTQYSLKINSLQPEDFGSYYCQSFWSTYTFGGGTKLEIKR
B4: Mutation 1-33 (antibody, mouse IgG2b, kappa, V domains shown)
VH: QVQLQQPGAELVRPGASVKLSCKASGTSFTNYWMNWVKQRPGQGLEWIGMIHPSESETRINQKFKDKATLTVDKSSSTAYMQLSSLTAEDSAVYYCARSGEFYTSYFDYWGQGTTLTVSS
VL: DIQLTQSPASLSASVGETVTITCRGSGNVHNYLAWYQQKQGKSPQLLVYNARTLADGVPSRFSGSGSGTQYSLKINSLQPEDFGSYYCQTFWSTYTFGGGTKLEIKR
B5: Mutation 1-32 (antibody, mouse IgG2b, kappa, V domains shown)
VH: QVQLQQPGAELVRPGASVKLSCKASGTSFTNYWMNWVKQRPGQGLEWIGMIHPSDSETRVNQKFKDKATLTVDKSSSTAYMQLSSLTAEDSAVYYCARSGDFYTTYFDYWGQGTTLTVSS
VL: DIQLTQSPASLSASVGETVTITCRGTGNVHNYLAWYQQKQGKSPQLLVYNAKTIADGVPSRFSGSGSGTQYSLKINSLQPEDFGSYYCQSFWSTYTFGGGTKLEIKR
B6: Mutation 1-28 (antibody, mouse IgG2b, kappa, V domains shown)
VH: QVQLQQPGAELVRPGASVKLSCKASGTSFTNYWMNWVKQRPGQGLEWIGMIHPSESETRLNQKFKDKATLTVDKSSSTAYMQLSSLTAEDSAVYYCAKSGEFYTYYFDYWGQGTTLTVSS
VL: DIQLTQSPASLSASVGETVTITCRGSGNIHNYLAWYQQKQGKSPQLLVYNARTIADGVPSRFSGSGSGTQYSLKINSLQPEDFGSYYCQYFWSTYTFGGGTKLEIKR
B7: Mutation 1-27 (antibody, mouse IgG2b, kappa, V domains shown)
VH: QVQLQQPGAELVRPGASVKLSCKASGYSFTNYWMNWVKQRPGQGLEWIGMIHPSESETRINQKFKDKATLTVDKSSSTAYMQLSSLTAEDSAVYYCAKSGEFYTSYFDYWGQGTTLTVSS
VL: DIQLTQSPASLSASVGETVTITCRGTGNVHNYLAWYQQKQGKSPQLLVYNARTLADGVPSRFSGSGSGTQYSLKINSLQPEDFGSYYCQSFWSTYTFGGGTKLEIKR
B8: Mutation 1-29 (antibody, mouse IgG2b, kappa, V domains shown)
VH: QVQLQQPGAELVRPGASVKLSCKASGSSFTNYWMNWVKQRPGQGLEWIGMIHPSESETRVNQKFKDKATLTVDKSSSTAYMQLSSLTAEDSAVYYCAKSGEFYTTYFDYWGQGTTLTVSS
VL: DIQLTQSPASLSASVGETVTITCRGTGNIHNYLAWYQQKQGKSPQLLVYNARTVADGVPSRFSGSGSGTQYSLKINSLQPEDFGSYYCQTFWSTYTFGGGTKLEIKR
B9: Mutation 1-23 (antibody, mouse IgG2b, kappa, V domains shown)
VH: QVQLQQPGAELVRPGASVKLSCKASGYSFTNYWMNWVKQRPGQGLEWIGMIHPSESETRVNQKFKDKATLTVDKSSSTAYMQLSSLTAEDSAVYYCARSGEFYTTYFDYWGQGTTLTVSS
VL: DIQLTQSPASLSASVGETVTITCRGSGNLHNYLAWYQQKQGKSPQLLVYNARTVADGVPSRFSGSGSGTQYSLKINSLQPEDFGSYYCQSFWSTYTFGGGTKLEIKR
B10: Mutation 1-31 (antibody, mouse IgG2b, kappa, V domains shown)
VH: QVQLQQPGAELVRPGASVKLSCKASGYSFTNYWMNWVKQRPGQGLEWIGMIHPSDSETRLNQKFKDKATLTVDKSSSTAYMQLSSLTAEDSAVYYCARSGDFYTYYFDYWGQGTTLTVSS
VL: DIQLTQSPASLSASVGETVTITCRGSGNIHNYLAWYQQKQGKSPQLLVYNAKTVADGVPSRFSGSGSGTQYSLKINSLQPEDFGSYYCQTFWSTYTFGGGTKLEIKR
B11: Mutation 1-30 (antibody, mouse IgG2b, kappa, V domains shown)
VH: QVQLQQPGAELVRPGASVKLSCKASGSSFTNYWMNWVKQRPGQGLEWIGMIHPSDSETRINQKFKDKATLTVDKSSSTAYMQLSSLTAEDSAVYYCARSGDFYTSYFDYWGQGTTLTVSS
VL: DIQLTQSPASLSASVGETVTITCRGTGNIHNYLAWYQQKQGKSPQLLVYNAKTLADGVPSRFSGSGSGTQYSLKINSLQPEDFGSYYCQYFWSTYTFGGGTKLEIKR
B12: Mutation 1-24 (antibody, mouse IgG2b, kappa, V domains shown)
VH: QVQLQQPGAELVRPGASVKLSCKASGSSFTNYWMNWVKQRPGQGLEWIGMIHPSDSETRINQKFKDKATLTVDKSSSTAYMQLSSLTAEDSAVYYCAKSGDFYTSYFDYWGQGTTLTVSS
VL: DIQLTQSPASLSASVGETVTITCRGSGNLHNYLAWYQQKQGKSPQLLVYNAKTLADGVPSRFSGSGSGTQYSLKINSLQPEDFGSYYCQTFWSTYTFGGGTKLEIKR
B13: Mutation 1-21 (antibody, mouse IgG2b, kappa, V domains shown)
VH: QVQLQQPGAELVRPGASVKLSCKASGTSFTNYWMNWVKQRPGQGLEWIGMIHPSESETRINQKFKDKATLTVDKSSSTAYMQLSSLTAEDSAVYYCARSGEFYTSYFDYWGQGTTLTVSS
VL: DIQLTQSPASLSASVGETVTITCRGSGNVHNYLAWYQQKQGKSPQLLVYNARTIADGVPSRFSGSGSGTQYSLKINSLQPEDFGSYYCQYFWSTYTFGGGTKLEIKR
B14: Mutation 1-22 (antibody, mouse IgG2b, kappa, V domains shown)
VH: QVQLQQPGAELVRPGASVKLSCKASGSSFTNYWMNWVKQRPGQGLEWIGMIHPSESETRLNQKFKDKATLTVDKSSSTAYMQLSSLTAEDSAVYYCARSGEFYTYYFDYWGQGTTLTVSS
VL: DIQLTQSPASLSASVGETVTITCRGTGNLHNYLAWYQQKQGKSPQLLVYNARTLADGVPSRFSGSGSGTQYSLKINSLQPEDFGSYYCQTFWSTYTFGGGTKLEIKR
B15: Mutation 1-20 (antibody, mouse IgG2b, kappa, V domains shown)
VH: QVQLQQPGAELVRPGASVKLSCKASGSSFTNYWMNWVKQRPGQGLEWIGMIHPSDSETRVNQKFKDKATLTVDKSSSTAYMQLSSLTAEDSAVYYCARSGDFYTTYFDYWGQGTTLTVSS
VL: DIQLTQSPASLSASVGETVTITCRGTGNVHNYLAWYQQKQGKSPQLLVYNAKTVADGVPSRFSGSGSGTQYSLKINSLQPEDFGSYYCQTFWSTYTFGGGTKLEIKR
B16: Mutation 1-26 (antibody, mouse IgG2b, kappa, V domains shown)
VH: QVQLQQPGAELVRPGASVKLSCKASGYSFTNYWMNWVKQRPGQGLEWIGMIHPSDSETRVNQKFKDKATLTVDKSSSTAYMQLSSLTAEDSAVYYCAKSGDFYTTYFDYWGQGTTLTVSS
VL: DIQLTQSPASLSASVGETVTITCRGSGNVHNYLAWYQQKQGKSPQLLVYNAKTVADGVPSRFSGSGSGTQYSLKINSLQPEDFGSYYCQYFWSTYTFGGGTKLEIKR

target: Pan-species-specific antigen Plasmodium Lactate DeHydrogenase (Pan-PLDH) protein; experiment: indirect ELISA at four coating concentrations, KD calculated from half-maximal OD

Row | Binder | Kd [nM]
1 | B1 | 0.329
2 | B2 | 0.565
3 | B3 | 0.493
4 | B4 | 0.372
5 | B5 | 0.329
6 | B6 | 0.759
7 | B7 | 0.427
8 | B8 | 0.411
9 | B9 | 0.319
10 | B10 | 0.514
11 | B11 | 0.198
12 | B12 | 0.402
13 | B13 | 0.655
14 | B14 | 0.378
15 | B15 | 0.204
16 | B16 | 0.374
